Series [1] concerns His-TRIM25 (Homo sapiens). The experiment in a line: EMSA. The settings on record: 3 mM Mg2+, 0.5 mM ATP; EMSA: 4.8 mM Tris pH 8, 144 mM NaCl, 0.96 mM DTT, 3 mM MgCl2, 0.5 mM ATP, 37.5 mM creatine phosphate, 16 uL, ~0.1 pmol RNA, 4 C 1 h; pull-down conditions not ….
Series [2] concerns the molecule itself. The experiment in a line: SEC-MALS; approximately 0.75 mg/mL on Superdex200 Increase 10/300 GL, 1.0 mL/min, 10 mM Tris (pH 8.0), 300 mM NaCl, 0.5 mM TCEP; self-association (tetramer).

As to pre-let-7a-1, the Kd in series [1] came to 800 nM.

B1: recombinant His-tagged TRIM25ΔRBD (lacking residues 470–508) (natural protein, human, UniProt Q14258 1-630, looked up)
chain: MAELCPLAEELSCSICLEPFKEPVTTPCGHNFCGSCLNETWAVQGSPYLCPQCRAVYQARPQLHKNTVLCNVVEQFLQADLAREPPADVWTPPARASAPSPNAQVACDHCLKEAAVKTCLVCMASFCQEHLQPHFDSPAFQDHPLQPPVRDLLRRKCSQHNRLREFFCPEHSECICHICLVEHKTCSPASLSQASADLEATLRHKLTVMYSQINGASRALDDVRNRQQDVRMTANRKVEQLQQEYTEMKALLDASETTSTRKIKEEEKRVNSKFDTIYQILLKKKSEIQTLKEEIEQSLTKRDEFEFLEKASKLRGISTKPVYIPEVELNHKLIKGIHQSTIDLKNELKQCIGRLQEPTPSSGDPGEHDPASTHKSTRPVKKVSKEEKKSKKPPPVPALPSKLPTFGAPEQLVDLKQAGLEAAAKATSSHPNSTSLKAKVLETFLAKSRPELLEYYIKVILDYNTAHNKKGIHYWEVELQKNNFCGVGICYGSMNRQGPESRLGRNSASWCVEWFNTKISAWHNNVEKTLPSTKATRVGVLLNCDHGFVIFFAVADKVHLMYKFRVDFTEALYPAFWVFSAGATLSICSPK
Consider B1, for which the “stoichiometry N” value in series [2] came out at 4.
